“Also recorded” adds a separate entry of the source.
Legend:
OIR rats [1] = assay: Retinal NV by fluorescein angiography in OIR rats; type: in vivo, rat; details: 3 μl of 1 μg/μl intravitreal at P15, fluorescein angiography at P18, vs BSA
Procedure: To determine the anti-angiogenic effect of DKK1 on retinal NV, DKK1 was injected (3 μl of 1 μg/μl DKK1) into the vitreous of the OIR rats at P15. At the time, NV had partially formed in the OIR rats at P15. The rats were then maintained in normoxia for 3 days, and then the retinal NV was examined using fluorescein angiography on retinal whole mounts at P18.
According to embodiments of experimental data and as shown in FIGS. 19A-19D, the OIR model was generated by exposure of BN rats to 75% oxygen for 5 days (P7-P12). At age of P15, OIR BN rats received a single intravitreal injection of DKK1 into the right eye and the same amount of BSA into the left eye. At P18, retinal vasculature was visualized using fluorescein angiography on the whole-mounted retinas from the left eye injected with BSA (FIGS. 19A and 19B) and the right eyes injected with DKK1 (FIGS. 19C and 19D) by angiography at P18.
Fluorescein Angiography: Angiograms were performed using intracardiac injection of 10 mg/ml fluorescein isothiocyanate-conjugated high molecular weight dextran (Sigma, FD-2000S) in deeply anesthetized mice. Eyes were dissected and fixed with 4% paraformaldehyde in Hanks' balanced saline prepared immediately before use for overnight at 4° C., and retinas were flat-mounted in Fluoromount-G.

OIR rats [2] = assay: Pre-retinal NV and HIF-1α in retinal sections of OIR rats; type: in vivo, rat
Procedure: Because pre-retinal NV (vasculature growing into the vitreous space) is a characteristic change of diabetic retinopathy, the effect of DKK1 was evaluated on pre-retinal NV. DKK1 was injected into the right vitreous of the OIR rats and BSA into the left vitreous at P15. At P18, pre-retinal NV was examined in retinal sections. […] Furthermore, the nuclear translocation and expression levels of HIF-1α, a key transcription factor activating VEGF expression, were decreased in the retina of the DKK1-injected eye, compared to the eye treated with BSA.
According to embodiments of experimental data and as shown in FIGS. 20A-20C, Brown Norway (BN) rats were exposed to hyperoxia for 5 days (P7-P12). At age of P15, the rats received a single injection of 3 μg of DKK1 into the vitreous of the right eyes and BSA into the left eyes. The eyes were sectioned at P18. Representative retinal sections from normal control rats (FIG. 20A), eyes of OIR rats injected with BSA (FIG. 20B), and OIR retina injected with DKK1 (FIG. 20C) were triple stained with three antibodies: Retinal vascular EC was stained with an antibody against CD31 (Red); the retinal ischemia stress status was detected by an antibody against GFAP (Blue), and the levels and nuclear translocation of HIF-1α were determined by an antibody against HIF-1α (Green).

primary RCEC = assay: HIF-1 activation and VEGF expression induced by LiCl in primary RCEC; type: cell-based, bovine; details: 50 mM LiCl plus 85 ng/ml DKK1, 24 hours
Procedure: Blockade of the wnt pathway by DKK1 down-regulates VEGF and HIF-1 expression and reduces vascular leakage in the retina of diabetic rats. To activate the wnt pathway, primary RCEC were treated with 50 mM LiCl, a specific activator of the wnt pathway, in the presence or absence of 85 ng/ml DKK1, a specific inhibitor of the wnt pathway, or BSA for 24 hours. Hypoxia was used as a positive control for HIF-1 activation. The HIF-1 nuclear translocation, a key step in its activation, was measured by immunocytochemistry. Both LiCl and hypoxia increased nuclear levels of HIF-1α, indicating an increased nuclear translocation.
According to embodiments of experimental data, RCEC were exposed to normoxia (FIG. 17A), hypoxia (1% O2) (FIG. 17B), 50 mM LiCl with BSA (FIG. 17C), or 50 mM LiCl plus 85 ng/ml DKK1 (FIG. 17D) for 24 hours. The nuclear translocation of HIF-1α was determined by immunocytochemistry with an antibody against HIF-1α. […] In FIG. 17E, the total levels of VEGF and HIF-1α were determined by western blot analysis with an antibody against HIF-1α or VEGF.

STZ-diabetic BN rats = assay: Retinal vascular permeability in STZ-induced diabetic rats; type: in vivo, rat; details: STZ-diabetic BN rats 16 weeks, 3 μg/eye intravitreal, 48 h, vs BSA contralateral eye, P<0.05
Procedure: To investigate if blockade of the wnt pathway reduces the retinal vascular hyper-permeability in diabetes, 3 μg purified DKK1 was intravitreally injected into the right eyes of STZ-diabetic BN rats at 16 weeks following the STZ injection, and the same amount of BSA into the contralateral eyes as control. The vascular permeability was measured at 48 h following the DKK1 injection.
The retinal vascular permeability was measured using Evans blue as a tracer, 48 hr after the injection. Vascular permeability was expressed as % of the permeability in the contralateral control (mean±SD, n=4), P<0.05.
Measurement of vascular permeability: Vascular permeability will be quantified by measuring FITC-BSA leakage from blood vessels into the retina following a method with modifications. The mice anesthetized and FITC-BSA (10 mg/kg body weight) is injected through the femoral vein under microscopic inspection. […] The fluoresce density of fluorescein-albumin from supernatant and serum is measured at excitation wave 485 nm/emission wave 530 nm. Retinal protein levels are measured in the pellet by Bradford assays with quantification at […]. The FITC-BSA levels in the retina are then calculated by the supernatant fluoresce density and normalized to retinal protein levels and normalized to serum FITC levels.

B1: DKK1: Purified Dickkopf-1 protein (R&D System), specific inhibitor of the wnt pathway binding LRP5/6; mouse protein in mice, human in HUVEC (protein, UniProt O54908 32-272; O54908 32-272, looked up)
Dickkopf-related protein 1 1: TLNSVLINSNAIKNLPPPLGGAGGQPGSAVSVAPGVLYEGGNKYQTLDNYQPYPCAEDEECGSDEYCSSPSRGAAGVGGVQICLACRKRRKRCMRHAMCCPGNYCKNGICMPSDHSHFPRGEIEESIIENLGNDHNAAAGDGYPRRTTLTSKIYHTKGQEGSVCLRSSDCAAGLCCARHFWSKICKPVLKEGQVCTKHKRKGSHGLEIFQRCYCGEGLACRIQKDHHQASNSSRLHTCQRH
Dickkopf-related protein 1 2: TLNSVLINSNAIKNLPPPLGGAGGQPGSAVSVAPGVLYEGGNKYQTLDNYQPYPCAEDEECGSDEYCSSPSRGAAGVGGVQICLACRKRRKRCMRHAMCCPGNYCKNGICMPSDHSHFPRGEIEESIIENLGNDHNAAAGDGYPRRTTLTSKIYHTKGQEGSVCLRSSDCAAGLCCARHFWSKICKPVLKEGQVCTKHKRKGSHGLEIFQRCYCGEGLACRIQKDHHQASNSSRLHTCQRH
modifications: mouse protein in mice, human in HUVEC
retinal NV areas (OIR rats [1]): decreased retinal NV areas
nuclear translocation and expression levels of HIF-1α in the retina (OIR rats [2]; 3 μg intravitreal at P15, sections at P18, vs BSA): decreased
neovascular endothelial cells (EC) in the vitreous space (pre-retinal NV) (OIR rats [2]; 3 μg intravitreal at P15, sections at P18, vs BSA contralateral eye): significantly fewer
HIF-1 nuclear translocation induced by LiCl (primary RCEC; immunocytochemistry): inhibited the HIF-1 nuclear translocation; also recorded: blocked
HIF-1α over-expression induced by activation of the wnt pathway (primary RCEC; western blot): blocked
VEGF over-expression induced by activation of the wnt pathway (primary RCEC; western blot): blocked
retinal vascular permeability (STZ-diabetic BN rats): significantly reduced retinal vascular permeability

Source: patent US20090074795A1, “Methods for addressing ocular diseases through interference with the wnt signaling pathway” (priority 2007, published 2009)
